The supplement of paper PMC9170038

System: MS2 coat protein
Assay: apparent KD of MS2 coat protein; designed switch direction (-1 OFF switch, 1 ON switch): -1; higher = weaker reporter binding
In short: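 The reported apparent KD is a per-design median over clusters, from curve fits of normalised cluster fluorescence. Protein titrations used SNAP-549-labelled MS2 coat protein, doubled from 0.7 or 1.5 nM to 3 µM, in Tris-HCl pH 7.5 buffer with KCl, MgCl2, BSA, DTT, tRNA and Tween-20, with no input, 200 uM small-molecule ligand, or an oligonucleotide input. The RNA switches were transcribed on Illumina chips by stalled E. coli RNA polymerase.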

[1] = input ligand: microRNA oligo, concentration not stated
[2] = Eterna round: R95, input ligand: FMN 200 uM
[3] = Eterna round: R95, input ligand: microRNA oligo, concentration not stated
[4] = Eterna round: R95, input ligand: none

| Sequence | apparent KD of MS2 coat protein (input ligand: FMN 200 uM) [nM] | apparent KD of MS2 coat protein [1] [nM] | apparent KD of MS2 coat protein (input ligand: none) [nM] | apparent KD of MS2 coat protein [2] [nM] | apparent KD of MS2 coat protein [3] [nM] | apparent KD of MS2 coat protein [4] [nM] |
| --- | --- | --- | --- | --- | --- | --- |
| ACAUGAGGAUCACCCAUGUCGAGUACAUGAGGAUCACCCAUGUAGGAUAUGGUUCGCUUUGCGUGCUAGAAGGAUAUGUGUUGC [salish99_ExNG3_r04_509] (Eterna round: R96, puzzle: Exclusion NG 3) | 351 | 199 | 241 | – | – | – |
| UUUUAGUCAGGAUAUACAUGAGGAUCACCCAUGUAAAAUUUUAAUUUAAUUUGAAGGUGUAGAAGGGACAUUUU [Ex3 #40] (Eterna round: R97, puzzle: Exclusion 3) | 25.9 | – | 27.8 | – | – | – |
| UUCGUACAGCAAAGCUGUACGCGUACAUGAGGAUCACCCAUGUAGGAUAUGGUAGGCAAAGCUUACUAGAAGGAUAGAGUGAUC [Mat - Exclusion NG 3 - Mod of JL - D76] (Eterna round: R96, puzzle: Exclusion NG 3) | 593 | 290 | 582 | – | – | – |
| AGUACUGACACGUCGGUGUUAGUACAAUAAGCUUGUGAAACAUGAGGAUCACCCAUGUCCUCAUAAGCUCGUCUUAU [salish99_TOv2_r3_081] (Eterna round: R96, puzzle: Sensor v3, turn-off variant 2) | 15.1 | 481 | 17.2 | – | – | – |
| UCGAGUGGUUAGGAUAUCAUUGGUGCAUAUCAUUGAGAAGGAACUACAUGAGGAUCACCCAUGUGGCAGUGAUA [Abezaso] (Eterna round: R96, puzzle: Exclusion 6) | 152 | 26.4 | 31.9 | – | – | – |
| AGAAAUGUCCAUGGCCGCAAGCUUUUUACUUGUCUUACCACAUGAGGAUCACCCAUGUGACAUGGACUCCUUAUGAU [Sensor v3, turn-off variant 2 (MOD of Oranla v.3)] (puzzle: Sensor v3, turn-off variant 2) | – | – | – | 17 | 43 | 14.8 |
| CCGAGGUGGCGGUCCUAUGACAUGAGGAUCACCCAUGUACCUCGCCACAAGCUCUUUGCUCAUCUUAUAGUUCUCGG [Onlaor] (Eterna round: R96, puzzle: Sensor v3, turn-off variant 1) | 19.9 | 132 | 24.5 | – | – | – |
| GGCAAUAUGUAGGAUAUCGUAUCGGAAACGAUACGAGAAGGGCAAACAUGAGGAUCACCCAUGUUCUUCAAGCC [Fiskers Ex 6 - 11] (puzzle: Exclusion 6) | – | – | – | – | 15.6 | – |
| GCAAGCGAUUAGGCUCGUCUUAUAAAGAAAAGAAUGAAAACAUGAGGAUCACCCAUGUAAGUGGGAAAGUUGAAGUG [JR_SV3TOV2_Sub009] (puzzle: Sensor v3, turn-off variant 2) | – | – | – | 267 | 1340 | 210 |
| CCAAACAGAGGAUAUGCGAAUAAAUAAAACUUUUUUUUUUAACAUGAGGAUCACCCAUGUAGAAGGCUGCAACC [Ex2 #40] (Eterna round: R97, puzzle: Exclusion 2) | 24.4 | – | 19.5 | – | – | – |
| ACAUGAGGAUCACCCAUGUCCGGCUGGUCUGUUUCGGCUGUCGAGGAUAUAGUUCGGUGUUCGCGCUAGAAGGUGGGAGCUGGC [Aenatbe mod 58] (Eterna round: R96, puzzle: Exclusion NG 3) | 160 | 106 | 134 | – | – | – |
| GCUGCAAGAGGAUAUACAUGAGGAUCACCCAUGUGGGAUCGCGUUCUGGAUCAGGACUGUAGAAGGUUUGUGCG [Eternabot (L1) Solution 63] (Eterna round: R97, puzzle: Exclusion 3) | 286 | – | 91.3 | – | – | – |
| ACCUCACAUGAGGAUCACCCAUGUCAGGAUAUACAAGAAAAUAACCGGAAAGACCGGAGUAGAAGGGACAUAAG [Arisus] (puzzle: Exclusion 1) | – | – | – | 30.3 | 16.2 | 17.1 |
| UUGUCGGCAGGAUAUACAUGAGGAUCACCCAUGUAAAUUUUUCGUUUAACUUGAAUGUGUAGAAGGGCCAUGUU [Ex3 #71] (Eterna round: R97, puzzle: Exclusion 3) | 35.3 | – | 24.5 | – | – | – |
| CGACUGUGAGGAUAUGGUGAGUAGUGCCUGAGCGCUGCUCACCAGAAGGCACAUGAGGAUCACCCAUGUAUAGC [Mat - Exclusion 4 - Mod of JL - D9] (puzzle: Exclusion 4) | – | – | – | – | 31.7 | – |
| GGAUAAAAGUCAGGAUAUACGUAUCACUAACGAGUAGAAGGGACACAUGAGGAUCACCCAUGUGAGUUCUCAAUAAGAAACACG [Prohibition 62 - Jieux - Exclusion NG 1] (Eterna round: R96, puzzle: Exclusion NG 1) | 13.8 | 12.2 | 14.9 | – | – | – |
| CAGUACUGAGGAUAUACAUGAGGAUCACCCAUGUGUUCCAGCUAGGGAACUAGCAAAAGUAGAAGGCAGUACUG [salish99_ex3_r3_075] (Eterna round: R96, puzzle: Exclusion 3) | 455 | 20.4 | 25 | – | – | – |

| Sequence | apparent KD of MS2 coat protein (input ligand: FMN 200 uM) [nM] | apparent KD of MS2 coat protein [1] [nM] | apparent KD of MS2 coat protein (input ligand: none) [nM] | apparent KD of MS2 coat protein [2] [nM] | apparent KD of MS2 coat protein [3] [nM] | apparent KD of MS2 coat protein [4] [nM] |
| --- | --- | --- | --- | --- | --- | --- |
| UUGUUCCGUGUAGGAUAUUGGUCUCCCUCGGGCCGAGAAGGACAUGAGGAUCACCCAUGUAUGUUAUUAUCGCGCGUGGCGCAU [Design 91] (Eterna round: R96, puzzle: Exclusion NG 1) | 112 | 21.6 | 37.9 | – | – | – |
| UUAGAUUAUUGAGGAUAUGGAUAUUUUUAUUAACCAGAAGGCAAACUCAACAUGAGGAUCACCCAUGUAUAAAGGGUAUUAGUU [JR_ExcNG1_Sub098] (Eterna round: R96, puzzle: Exclusion NG 1) | – | 71.2 | – | – | – | – |
| GAUCAACAUGAGGAUCACCCAUGUCAGGAUAUCUAUCAAGUGAGCCUAUCACAAUUUGGGAGAAGGGACCUAAU [Eternabot (L2) Solution 51] (Eterna round: R97, puzzle: Exclusion 1) | 35.1 | – | 35.8 | – | – | – |
| AUAGUAGAAGUGAGGAUAUCGUAGAUUUUAGGAAACGAGAAGGCACAUGAGGAUCACCCAUGUAAGAUGGAGGU [JR_BMOE4_Sub051] (puzzle: Brourd's mod of Exclusion 4) | – | – | – | 104 | 263 | 124 |
| AAAUACAAGUAAAGAUCCUACAUGAGGAUCACCCAUGUGCUCGUCUUGUAAAGUACUAUCACGAAAGUGAUAGUACA [Sensor 3, v1 - 22] (puzzle: Sensor v3, turn-off variant 1) | – | – | – | 45.7 | 31.5 | 51 |
| GGGAAGAACCAACAAGUAAACAUGAGGAUCACCCAUGUAAACUUCAUGUGCACGCUUUGCGUGCAAGCUCGUCUUAU [AK-miRNA-r3-14] (Eterna round: R97, puzzle: Sensor, turn-off variant 1) | 19.2 | – | 18.6 | – | – | – |
| AGGUGUAGAGGAUAUUCAUUCUUCCACAUGAGGAUCACCCAUGUCCCGGUCACCAGGGACGGAGAAGGCUACACCA [Omei Ex5 D26] (Eterna round: R97, puzzle: Exclusion 5) | 108 | – | 76.8 | – | – | – |
| AGUACUGACACGUUGGUGUUAGUACAAUAAGCUUGUGUUACAUGAGGAUCACCCAUGUCCUCAUAAGCUCGUCUUAU [salish99_TOv2_r2_095] (puzzle: Sensor v3, turn-off variant 2) | – | – | – | 117 | 38.4 | 138 |
| GAGUGACAUGAGGAUCACCCAUGUGAGGAUAUGCGAUGGACCAAAUUAACAAUAGAAGGCAGAAGGCGCAUAAA [Exclusion 1 V9] (puzzle: Exclusion 1) | – | – | – | 41.4 | 34.8 | 41.1 |
| GCAAGCUUAAUCAGUAUGAACAUGAGGAUCACCCAUGUAUAAGGUAAUUCUUUUGGGUUUUUUAUUGCUCGUCUUAU [JR_STOV1_Sub027] (Eterna round: R97, puzzle: Sensor, turn-off variant 1) | 245 | – | 297 | – | – | – |
| UCGAGUGGUUAGGAUAUCAUUGGUGCAUAUCAUUGAGAAGGAACUACAUGAGGAUCACCCAUGUGGCAGUGAUA [Abezaso] (puzzle: Exclusion 6) | – | – | – | – | 23.9 | – |
| UUUUUACAUGAGGAUCACCCAUGUCAGGAUAUCCUUAUAUUUUAUUAUUUUAUUUUUUGGAGAAGGGACUAUUA [My solution] (puzzle: Exclusion 1) | – | – | – | – | 297 | – |
| GGUACUAACACGAUAGUGUUAGUACUAUAAGCUUGUGUUACAUGAGGAUCACCCAUGUCCUCAUAGGCUCGUCUUAU [Mat - Sensor v3 - Turn-off var 2 - D86] (puzzle: Sensor v3, turn-off variant 2) | – | – | – | 169 | 30.8 | 166 |
| AAUCAGCGAGGAUAUACAGAUUCUGGGUGCGGCUCGGCGAGACAUGAGGAUCACCCAUGUAGAAGGUGCUAGCC [Teoredre] (puzzle: Exclusion 2) | – | – | – | – | 29.2 | – |
| AUAAGUAUAUAGGAUAUCUAGCUGGAAACAGCUAGAGAAGGAUGUACAUGAGGAUCACCCAUGUAAAUCUCAAU [Ex6/12-A3] (Eterna round: R97, puzzle: Exclusion 6) | 16.3 | – | 14.1 | – | – | – |
| UAACAUGUCUGAGGAUAUCUGCACGUGUAGUGCAGAGAAGGCAGAACAUGAGGAUCACCCAUGUAGAUCAUUAAUUAAUUAAUU [ENG1/7-B3] (Eterna round: R96, puzzle: Exclusion NG 1) | 765 | 337 | 478 | – | – | – |
| AUAAAAGAAGUUAGGAUAUGGAAUCGUGGCAACGACCAGAAGGAACUUGAGGAUCACCCAAGUGAUUCUGAUCG [Atzaace] (Eterna round: R97, puzzle: Brourd's mod of Exclusion 4) | 15.2 | – | 14.1 | – | – | – |
